Source: patent US20190367592A1 (AC IMMUNE, published 2019)
Where no end group is shown, it is not given here.

Columns and labels:
[1] = biological target: T1, recombinant human Tau monomer, 2N4R isoform (amino acids 2-441) (human, UniProt P10636-8 2-441); test: SPR, mIgG2a captured, Tau monomer analyte, 1:1 fit
T1 construct: range 2-441; N-terminal His-tag removed with TEV protease; also called monomeric Tau
In short: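 Antibodies in mIgG2a format captured on anti-mouse IgG surface at 1 μg/ml (30 or 45 s) or 0.1 μg/ml (70 or 150 s), 10 μl/min, in HBSP (10 mM HEPES pH7.4, 150 mM NaCl, 0.05% Tween 20). Tau monomer flowed as analyte; association 180-480 s, dissociation 300-600 s, 1:1 fit.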

[2] = biological target: T2, AVI-tag biotinylated oligomeric flTau (human, UniProt P10636-8 1-441, site-specific biotin on AVI-tag); test: capture ELISA, antibody on anti-IgG plate, biotinylated oligoTau titrated, O.D.
T2 construct: also called oligoTau; oligomeric Tau
T2 sequence (P10636 other isoform, or with tags, fused parts or gaps limits assumed): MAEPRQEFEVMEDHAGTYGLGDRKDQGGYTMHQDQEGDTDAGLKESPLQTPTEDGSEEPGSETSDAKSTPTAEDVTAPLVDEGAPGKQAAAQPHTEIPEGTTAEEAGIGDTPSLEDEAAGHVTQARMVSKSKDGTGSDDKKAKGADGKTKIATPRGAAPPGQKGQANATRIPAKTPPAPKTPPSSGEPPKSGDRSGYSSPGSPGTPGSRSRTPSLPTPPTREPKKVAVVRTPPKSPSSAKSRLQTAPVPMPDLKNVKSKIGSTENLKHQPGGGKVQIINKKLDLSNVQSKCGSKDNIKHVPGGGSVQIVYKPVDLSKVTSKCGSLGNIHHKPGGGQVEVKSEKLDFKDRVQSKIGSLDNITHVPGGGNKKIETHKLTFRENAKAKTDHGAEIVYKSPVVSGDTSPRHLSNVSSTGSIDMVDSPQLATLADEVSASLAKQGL
Experimental: (§1) For the oligoTau and monoTau capture ELISAs, antibodies contained in serum-free sterile hybridoma supernatants were immobilized on an anti-IgG coated plate at 500-fold dilution, followed by the incubation of oligoTau or monoTau, both with site-specific biotinylation via an AVI-tag. The target incubations started at 5 μg/mL and then were diluted 8- or 16-fold. Streptavidin-HRP and ABTS substrate was used for signal quantitation in a plate reader (Tecan, Switzerland). Results are expressed as O.D.

[3] = biological target: T3, full-length human Tau (flTau) (human, UniProt P10636-8 1-441); test: SPR, hybridoma Ab on anti-IgG chip, flTau analyte
T3 construct: range 1-441; bought (SignalChem); also called human Tau-441
In short: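 Unpurified antibodies from serum-free hybridoma supernatants were captured on an anti-IgG SPR chip (Biacore T-100), and flTau was flowed as analyte. KD was obtained from kinetic analysis with a 1:1 Langmuir fit.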

Tau fragment 37-51 = biological target: T4, Tau fragment 37-51 (human, UniProt P10636-8 37-51); test: ELISA on Tau 15-mer peptides, O.D.; conditions of this panel not given
T4 construct: range 37-51
T4 peptide (looked up): GDTDAGLKESPLQTP

Tau fragment 1-15 = biological target: T5, Tau fragment 1-15 (human, UniProt P10636-8 1-15); test: as above
T5 construct: range 1-15
T5 peptide (looked up): MAEPRQEFEVMEDHA

MAPT(10-24) = biological target: T6, MAPT(10-24) (human, also: biotinylated, site not given here); test: as above
T6 construct: also called Tau fragment 10-24
T6 peptide: VMEDHAGTYGLGDRK

Tau fragment 28-42 = biological target: T7, Tau fragment 28-42 (human, UniProt P10636-8 28-42, not fully specified); test: as above
T7 construct: range 28-42
T7 peptide (looked up): GYTMHQDQEGDTDAG

Tau fragment 19-33 = biological target: T8, Tau fragment 19-33 (human, UniProt P10636-8 19-33, not fully specified); test: as above
T8 construct: range 19-33
T8 peptide (looked up): GLGDRKDQGGYTMHQ

0N4R Tau = biological target: T9, 0N4R Tau (human, UniProt P10636-6 1-383); test: indirect or sandwich ELISA on recombinant human Tau isoforms
T9 construct: also called 0N-Tau
T9 sequence (P10636 other isoform, or with tags, fused parts or gaps limits assumed): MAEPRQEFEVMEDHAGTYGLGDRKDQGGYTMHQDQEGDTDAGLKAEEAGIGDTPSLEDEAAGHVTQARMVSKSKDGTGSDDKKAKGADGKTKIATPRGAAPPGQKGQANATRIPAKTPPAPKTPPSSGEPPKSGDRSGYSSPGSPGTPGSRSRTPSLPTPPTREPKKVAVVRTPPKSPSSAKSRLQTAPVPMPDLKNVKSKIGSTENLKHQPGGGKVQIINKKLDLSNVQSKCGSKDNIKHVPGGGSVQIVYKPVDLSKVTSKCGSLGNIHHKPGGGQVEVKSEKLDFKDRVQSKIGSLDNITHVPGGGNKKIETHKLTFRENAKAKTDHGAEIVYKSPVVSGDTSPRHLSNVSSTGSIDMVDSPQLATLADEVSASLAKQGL

[4] = biological target: T10, AVI-tag biotinylated monomeric flTau (human, UniProt P10636-8 1-441, site-specific biotin on AVI-tag); test: capture ELISA, antibody on anti-IgG plate, biotinylated monoTau titrated, O.D.
T10 construct: also called monoTau; monomeric Tau
Experimental: as §1

T1 sequence (P10636 other isoform, or with tags, fused parts or gaps limits assumed): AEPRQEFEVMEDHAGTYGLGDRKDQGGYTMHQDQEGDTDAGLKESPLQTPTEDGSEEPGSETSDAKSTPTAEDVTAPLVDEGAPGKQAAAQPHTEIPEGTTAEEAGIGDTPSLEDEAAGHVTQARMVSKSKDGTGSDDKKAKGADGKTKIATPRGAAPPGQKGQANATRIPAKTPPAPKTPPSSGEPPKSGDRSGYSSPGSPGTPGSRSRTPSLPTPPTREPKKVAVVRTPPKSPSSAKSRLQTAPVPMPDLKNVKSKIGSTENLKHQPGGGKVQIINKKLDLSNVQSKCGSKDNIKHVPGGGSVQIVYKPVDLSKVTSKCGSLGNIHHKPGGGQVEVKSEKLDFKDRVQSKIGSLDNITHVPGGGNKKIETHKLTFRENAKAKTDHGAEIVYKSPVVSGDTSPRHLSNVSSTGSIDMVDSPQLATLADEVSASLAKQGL

| Binder | Kd [1] [nM] | koff [1] [s⁻¹] | kon [1] [M⁻¹ s⁻¹] | EC50 (read off the curve) [2] [µg/mL] | Kd [3] [nM] | binding result (Tau fragment 37-51) | binding result (Tau fragment 1-15) | binding result (MAPT(10-24)) | binding result (Tau fragment 28-42) | binding result (Tau fragment 19-33) | binding result (0N4R Tau) | binding result [2] | binding result [4] |
| --- | --- | --- | --- | --- | --- | --- | --- | --- | --- | --- | --- | --- | --- |
| 19H6-F7 (antibody, mouse IgG2a, V domains shown) VH: EVQLVESGGDLVKPGGSLKLSCAASGFTFSSYGMSWVRQTPDKRLEWVATISSGGTYTYYPDSVKGRFTISRDNAKNTLYLQMSSLKSEDTAMYYCAPSYDGAMDYWGQGTSVTVSS VL: DVLMTQTPLSLPVSLGDQASISCRSSQSIVHSNGNTYLEWYLQKPGQSPKLLIYKVSNRFSGVPDRFSGSGSGTDFTLKISRVEAEDLGVYYCFQGSLVPWTFGGGTKLEIK | 10 | 0.002 | 200000 | ~0.2 | 39 | no binding (tested: not given) | no binding (tested: not given) | binds | no binding (tested: not given) | no binding (tested: not given) |  |  |  |
| 12A10-E8 (antibody, V domains shown, hybridoma supernatant) VH: QIQLVQSGPELKKPGETVKISCKASGYTFTNYGMNWVKQAPGKGLKWMGWINMYTGEPTYGDDFKGRFVFSLETSVSTVYLQINNLKKEDTATFFCARGGRPDYWGQGTSVTVSS VL: DVLMTQTPLSLPVSLGDQASISCRSSQSIVHSNGNTYLEWYLQKPGQSPKLLIYKVFNRFSGVPDRFSGSGSGTDFTLKINRVEAEDLGVYYCLQGSHVPYTFGGGTKLEIK |  |  |  |  | 0.8 |  |  |  |  |  | no binding (tested: not given) |  |  |
| 123E9-A1 (antibody, mouse IgG2a, V domains shown) VH: EVQLQQSGPELVKPGASVKMSCKASGYTFTDYYMKWVKQSHGKSLEWIGDIDPNNGGTSYNQKFKGKATLTVDKSSSTAYMQLNSLTSEDSAVYYCARSAGFGDSFSFWGLGTLVTVSA VL: DVLMTQTPLSLPVSLGDQASISCRSSQSIVHSNGNTYLEWYLQKPGQSPKLLIYKVSNRFSGVPDRFSGSGSGTDFTLKISRVEAEDLGFYYCFQGSHVPPTFGGGTKLEIK | 52 | 0.02 | 400000 |  | 1.8 | no binding (tested: not given) | no binding (tested: not given) | no binding (tested: not given) | binds | binds |  |  |  |
| 3A4-H4 (antibody, mouse IgG2a, V domains shown) VH: EVQLVESGGDLVKPGGSLKLSCAASGFTFSSYGMSWVRQTPDKRLEWVATISSGGTYTYYPDSVKGRFTISRDNAKNTLYLQMSSLKSEDTAMYFCATSYDGAMDYWGQGTSVTVSS VL: DVLMTQTPLSLPVSLGDQASISCRSSQNIVHSNGNTYLEWYLQKPGQSPKLLIYKVSNRFSGVPDRFSGSGSGTDFTLKISRVEAEDLGVYYCFQGTLVPWTFGGGTKLEIK | 12 | 0.0003 | 30000 | ~0.09 | 7.8 | no binding (tested: not given) | no binding (tested: not given) |  | no binding (tested: not given) | no binding (tested: not given) |  |  |  |
| 73H6-B8 (antibody, V domains shown, hybridoma supernatant) VH: QVQLKESGPGLVAPSQSLSITCTISGFSLTSYGVHWVRQPPGKGLEWLVVIWSDGSTTYNSALKSRLSISKDNSKSQVFLKMNSLQTDDTAMYYCARQGGFITTAYYAMDYWGQGTSVTVSS VL: DIVMSQSPSSLAVSAGEKVTMSCKSSQSLLNSRTRKNYLAWYQQKPGQSPKLLIYWASTRESGVPDRFTGSGSGTDFTLTISSVQAEDLAVYYCKQSYNLYTFGGGTKLEIK |  |  |  |  |  |  |  |  |  |  |  | binds | binds |
| 211G6-B6 (antibody, V domains shown) VH: QVQLKESGPGLVAPSQSLSITCTVSGFSLTSYAISWVRQPPGKGLEWLGVIWTGGGTNYNSALKSRLSITKDNSKNQVFFRMNSLQTDDTARYYCARKKLYDYDGGYFFDYWGQGTTLTVSS VL: DIVMSQSPSSLAMSVGEKVTMSCKSNQSLLYSSNQKNYLAWYQQKPGQSPKLLIYWASTRESGVPDRFTGSGSGTDFTLTISSVKAEDLAVYYCHQYYSYPWTFGGGTKLEIK |  |  |  |  | 4.7 |  |  |  |  |  | no binding (tested: not given) |  |  |
| 55E7-F11 (antibody, mouse IgG2a, V domains shown) VH: EVKLEESGGGLVQPGGSMKLSCVASGFTFSNYWMNWVRQSPEKGLEWVAQIRLKSDNYATHYAESVKGRFTISRDDSKSSVYLQMNNLRAEDTGIYYCAGYFYGGYFDVWGTGTTVTVSS VL: ELVLTQSPTTMAASPGKKITITCSASSSISSNYLHWYQQKPGFSPKLLIYRTSNLASGVPARFSGSGSGTSYSLTIGTMEAEDVATYYCQQGSSLPFTFGSGTKLEIK | 171 | 0.04 | 200000 |  |  |  |  |  |  |  | no binding (tested: not given) |  |  |
| 72E12-H9 (antibody, V domains shown, hybridoma supernatant) VH: EVKLEESGGGLVQPGGSMKLSCVASGFTFSNYWMNWVRQSPEKGLEWVAQIRLKSDNYATHYAESVKGRFTISRDDSKSSVYLQMNNLRAEDTGIYYCAGYFYGGYFDVWGTGTTVTVSS VL: ELVLTQSPTTMAASPGKKITITCSASSSISSNYLHWYQQKPGFSPKLLIYRTSNLASGVPARFSGSGSGTSYSLTIGTMEAEDVATYYCQQGSSLPFTFGSGTKLEIK |  |  |  |  | 2 |  |  |  |  |  | no binding (tested: not given) |  |  |
| 30D12-B5 (antibody, V domains shown, hybridoma supernatant) VH: EVQLQQSGAELVKPGASVKLSCTTSGFNIKDTYMHWVKQRPEQGLEWIGGIDPANGNTKYDPKFQGKATITADTSSNTAYLQLSSLTSEDTAVYYCAHGNFVYWGQGTLVTVSA VL: DVVMTQTPLSLSVTIGQPASISCKSSQSLLYSNGKTYLNWFQQRPGQAPKHLMYQVSKLDPGIPDRFSGSGSETDFTLKISRVEAEDLGVYYCLQGTYYPLTFGAGTNLELK |  |  |  |  | 2 |  |  |  |  |  | no binding (tested: not given) |  |  |
| 77D1-D2 (antibody, V domains shown, hybridoma supernatant) VH: EVQLQQSVAELVRPGASVTLSCTSSGFNIKNTYMHWVIQRPEQGLEWIGKIDPAIVNTKYAPKFQGKATITADTSSNTAYLQLSSLTSEDTGIYYCAEGALLYWGLGTSVTVSS VL: DVVMTQTPLSLSVTIGQPASISCKSSQSLLHSNGKTYLNWLQQRPGQAPKLLMYLVSKVDPGIPDRFSGSGSETDFTLKISRVEAEDLGVYYCFQGTYYPHTFGGGTKLEIK |  |  |  |  | 0.5 |  |  |  |  |  | no binding (tested: not given) |  |  |
| 89F4-A1 (antibody, mouse IgG2a, V domains shown) VH: EVQLVESGGGLVQPKGSLKLSCAASGFTFNTYAMNWVRQAPGKGLEWVARIRSKSNNYAAYFADSVKDRFTISRDDSQTMLYLQMNNLKSEDTAMYYCVSGGNYVPFAYWGQGTLVTVSA VL: NIMMTQSPSSLAVSAGEKVTMSCKSSQSVFYSSEQRNYLAWYQQKPGQSPKLLISWASTRESGVPDRFTGSGSGTDFTLTISSVQGEDLAVYYCHQYLSSFTFGSGTKLEIK | 27 | 0.007 | 300000 |  | 2.9 | binds | no binding (tested: not given) | no binding (tested: not given) | binds | no binding (tested: not given) |  |  |  |
